# Results from patent publication US20110039788, “COMPOSITIONS, METHODS AND KITS FOR DETECTING AND TREATING CANCER” (University of Miami, published 2011).
# B1: Lbh TBE T3 (dsDNA)
# DNA 1: GCTTTGAAGA
# DNA 2: TCTTCAAAGC
# B2: Lbh TBE T1 (dsDNA)
# DNA 1: CCTTTGAATC
# DNA 2: GATTCAAAGG
# B3: Lbh TBE T4 (dsDNA)
# DNA 1: ACTTTGTACT
# DNA 2: AGTACAAAGT
# B4: Lbh TBE T2 (dsDNA)
# DNA 1: TCTTTGATAT
# DNA 2: ATATCAAAGA
# Columns and labels:
# [1] = molecular target: T1, TCF4 (TCF7L2) DNA-binding domain (UniProt Q9NQB0 Q9NQB0:265-496); assay: EMSA; high affinity; anti-His supershift assay; settings: tags: His (pET28A), expressed in E. coli; label: 32P 5' end
# T1 sequence (Q9NQB0 265-496, one chain of several): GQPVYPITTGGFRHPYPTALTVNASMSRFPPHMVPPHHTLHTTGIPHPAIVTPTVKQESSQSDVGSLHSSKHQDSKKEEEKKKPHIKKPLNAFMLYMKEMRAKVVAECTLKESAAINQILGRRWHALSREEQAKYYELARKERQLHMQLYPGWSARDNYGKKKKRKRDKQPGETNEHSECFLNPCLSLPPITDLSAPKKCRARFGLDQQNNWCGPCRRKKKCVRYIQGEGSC
# Experimental: (§1) Double-stranded DNA oligonucleotides (30 mers) containing the genomic TBE sites T1-T4 with flanking sequences were 5′ end-labeled with ³²P and 5000 cpm/μl of labeled probe was incubated with 1 μg of recombinant His-TCF4 protein in a total volume of 15 μl binding buffer. For competition and supershift experiments, His-TCF4 was pre-incubated with unlabelled DNA oligonucleotides at 400-fold excess or with 1-5 μg of anti-6× His tag antibody (Abcam) for 10 minutes prior to addition of labeled probe. Samples were separated on 5% non-denaturing polyacrylamide gels for 1 h at 400V. Protein-DNA complexes were detected by phosphoimaging on a Storm 840 Scanner (Molecular Dynamics).
# [2] = molecular target: T1, TCF4 (TCF7L2) DNA-binding domain; assay: EMSA; high affinity; 1 ug protein in 15 ul; settings: tags: His (pET28A), expressed in E. coli; label: 32P 5' end
# Experimental: as §1
# To elucidate the molecular pathways acting upstream of Lbh, murine Lbh genomic sequences were screened for potential transcription factor binding sites. This in silico search identified four conserved putative TCF/LEF-binding elements (TBEs) in the Lbh gene locus. Two TBEs with the consensus motif 5′-CTTTG(A/T)(A/T)-3′ were located within an enhancer region (E1)-6245 (T1) and −6195 (T2) base pairs (bp) upstream of the Lbh transcriptional start site (FIG. 1A). In addition, two consensus TBEs were found in an enhancer (E2) contained within the first intron of the Lbh gene at positions +1558 (T3) and +2145 (T4) by (FIG. 1A). To directly assay for TCF binding to these sites, electrophoretic mobility shift analysis (EMSA) was performed. Recombinant TCF4 protein bound with high affinity to all Lbh-specific TBEs (T1-T4), but not to an unspecific oligonucleotide (FIG. 1B). TCF4 binding to these sites was efficiently competed by addition of 400-fold excess of unlabeled wild-type (+) oligonucleotide as well as increasing amounts of an antibody against recombinant TCF4 protein, but not by addition of 400-fold excess of mutant (m) oligonucleotide (FIGS. 1B, C). Subsequently, cell-based reporter assays were performed to test whether the Lbh genespecific TBE sites (T1-T4) were functionally responsive to overexpression of β-catenin, which is the Wnt-inducible component of the TCF/β-catenin transcriptional complex. […]
Binder,binding result [1],binding result [2]
B1,binds,
B2,,binds
B3,,binds
B4,,binds
